This is an account of results in publication PMC6978347.

B1: AtNBR1^1–94 (AtNBR1–PB1) [Arabidopsis thaliana] / MBP-tagged wild-type AtNBR1–PB1^1–94 [Arabidopsis thaliana] (parent)
chain 1: MESTANALVVKVSYGGVLRRFRVPVKANGQLDLEMAGLKEKIAALFNLSADAELSLTYSDEDGDVVALVDDNDLFDVTNQRLKFLKINVNAGVS
chain 2: B1 chain 1

In this experiment the parent is B1. The experiment in a line: pull-down (MBP pulldown, band quantification). The settings on record: with MBP-tagged wild-type AtNBR1–PB1^1–94 [Arabidopsis thaliana];; read off a plot.
Take chain 1 R19A R20A: the ratio to parent worked out at 0.01. For the variant chain 1 E61A, the ratio to parent is 0.22. On to chain 1 K11A, for which the ratio to parent was 0.32. The same measure for chain 1 K11A D60A: 0.04; for chain 1 D64A: 0.27; for chain 1 D60A D62A: 0.06.
